Molecular target: human GLP-1 receptor (human) (UniProt P43220)
Assay: cell-based or functional assay

human GLP-1 receptor (human), sequence (P43220 24-463): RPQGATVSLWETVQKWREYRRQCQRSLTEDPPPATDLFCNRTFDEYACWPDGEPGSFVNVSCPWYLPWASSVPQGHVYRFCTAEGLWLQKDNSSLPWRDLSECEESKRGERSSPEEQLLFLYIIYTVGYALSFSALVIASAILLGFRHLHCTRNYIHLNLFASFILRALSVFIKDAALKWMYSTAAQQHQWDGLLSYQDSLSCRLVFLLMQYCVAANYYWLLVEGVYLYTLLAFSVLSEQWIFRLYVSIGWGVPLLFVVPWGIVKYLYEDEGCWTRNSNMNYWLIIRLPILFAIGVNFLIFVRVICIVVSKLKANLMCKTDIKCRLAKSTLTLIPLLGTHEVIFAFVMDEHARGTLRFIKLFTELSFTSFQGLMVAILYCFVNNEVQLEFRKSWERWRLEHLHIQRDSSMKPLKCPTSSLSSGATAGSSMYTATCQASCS

EC50 of cAMP formation (AlphaScreen, Assay XI), relative to that of compound G1 (times the EC50 of compound G1): 5
Substance: N-epsilon37-[2-(2-{2-[2-(2-{2-[(S)-4-Carboxy-4-({trans-4-[(19-carboxynonadecanoylamino)methyl]cyclohexanecarbonyl}amino)butyrylamino]ethoxy}ethoxy)acetylamino]ethoxy}ethoxy)acetyl][DesaminoHis7,Glu22,Arg26,Arg34,Lys37]GLP-1-(7-37) (peptide)

— US20130012432A1, “Peptides for Treatment of Obesity” (Novo Nordisk A/S, priority 2010, published 2013)
